Several values for one entry are separate records, joined by “and”; a condition that tells them apart may be missing. Equal entries are not always repeated.
Legend:
[1] = target: OmpC (Escherichia coli) (UniProt P06996); experiment: FRET; details: cited from earlier work
[2] = target: T1, transmembrane domain of OmpA (tOmpA) (E. coli, UniProt P0A910 22-192); experiment: native MS; nano-ESI; proteins alone or pre-mixed 1:1; tOmpA diluted from 8 M urea into Skp or SurA (all 1 μM final, 0.2 M urea, 50 mM glycine–NaOH pH 9.5), 5 min at room temperature, then buffer exchange into 200 mM ammonium acetate pH 10; details: both partners purified
T1 construct: 171-residue transmembrane (beta-barrel) domain of OmpA; Diluted from a denatured state in 8 M urea into the chaperone solution; PDB 1QJP, used for the simulations, is the same domain with mutated residues
T1 sequence (looked up): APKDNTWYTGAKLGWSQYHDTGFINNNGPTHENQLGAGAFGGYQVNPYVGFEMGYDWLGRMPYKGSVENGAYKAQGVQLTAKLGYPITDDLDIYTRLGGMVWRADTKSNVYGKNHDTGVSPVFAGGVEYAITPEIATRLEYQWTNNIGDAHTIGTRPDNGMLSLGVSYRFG

[3] = target: Cys-tOmpA labeled with Alexa Fluor 488 (E. coli); experiment: MST; 100 nM Alexa Fluor 488-labeled Cys-tOmpA, SurA 100 μM–3 nM, 0.25 M urea, 50 mM glycine–NaOH pH 9.5; Monolith NT.115; fit to the Hill equation; apparent
[4] = target: T2, SurA (Escherichia coli), P0ABZ6; experiment: native MS; nano-ESI; proteins alone or pre-mixed 1:1; tOmpA diluted from 8 M urea into Skp or SurA (all 1 μM final, 0.2 M urea, 50 mM glycine–NaOH pH 9.5), 5 min at room temperature, then buffer exchange into 200 mM ammonium acetate pH 10; details: remark: other sources report otherwise
T2 chain: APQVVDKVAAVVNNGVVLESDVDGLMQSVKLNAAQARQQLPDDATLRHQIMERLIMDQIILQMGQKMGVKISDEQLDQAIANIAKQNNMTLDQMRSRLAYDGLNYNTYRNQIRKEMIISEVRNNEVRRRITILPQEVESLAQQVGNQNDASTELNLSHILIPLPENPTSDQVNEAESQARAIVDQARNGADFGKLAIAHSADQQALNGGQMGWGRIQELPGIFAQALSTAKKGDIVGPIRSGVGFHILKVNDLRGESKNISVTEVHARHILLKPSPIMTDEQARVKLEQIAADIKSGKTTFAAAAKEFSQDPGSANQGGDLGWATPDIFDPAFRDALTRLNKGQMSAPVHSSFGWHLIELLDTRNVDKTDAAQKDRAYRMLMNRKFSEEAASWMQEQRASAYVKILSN

Chain of OmpC (Escherichia coli) (P06996 22-367): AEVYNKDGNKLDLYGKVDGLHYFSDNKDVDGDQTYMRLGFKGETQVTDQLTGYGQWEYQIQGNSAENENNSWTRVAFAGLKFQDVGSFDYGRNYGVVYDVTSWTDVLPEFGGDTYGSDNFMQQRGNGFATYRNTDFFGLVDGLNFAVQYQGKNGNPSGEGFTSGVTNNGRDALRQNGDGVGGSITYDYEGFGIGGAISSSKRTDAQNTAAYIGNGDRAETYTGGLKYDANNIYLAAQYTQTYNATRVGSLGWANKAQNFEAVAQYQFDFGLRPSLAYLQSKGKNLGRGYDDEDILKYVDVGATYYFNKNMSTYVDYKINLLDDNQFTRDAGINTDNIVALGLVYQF

**Q.** For SurA (from UniProt P0ABZ6), which Kd [1] is on record?
**A.** 106 nM

B1: Skp (natural protein, Escherichia coli, UniProt P0AEU7 21-161, looked up)
chain: ADKIAIVNMGSLFQQVAQKTGVSNTLENEFKGRASELQRMETDLQAKMKKLQSMKAGSDRTKLEKDVMAQRQTFAQKAQAFEQDRARRSNEERGKLVTRIQTAVKSVANSQDIDLVVDANAVAYNSSDVKDITADVLKQVK
notes: Skp, periplasmic chaperone of Escherichia coli; Probably the mature protein without its signal peptide (surmised); also called Escherichia coli periplasmic chaperone Skp
**Q.** For B1, which “stoichiometry N” value [2] is on record?
**A.** 1

B2: SurA (natural protein, Escherichia coli, UniProt P0ABZ6 21-428, looked up)
chain: APQVVDKVAAVVNNGVVLESDVDGLMQSVKLNAAQARQQLPDDATLRHQIMERLIMDQIILQMGQKMGVKISDEQLDQAIANIAKQNNMTLDQMRSRLAYDGLNYNTYRNQIRKEMIISEVRNNEVRRRITILPQEVESLAQQVGNQNDASTELNLSHILIPLPENPTSDQVNEAESQARAIVDQARNGADFGKLAIAHSADQQALNGGQMGWGRIQELPGIFAQALSTAKKGDIVGPIRSGVGFHILKVNDLRGESKNISVTEVHARHILLKPSPIMTDEQARVKLEQIAADIKSGKTTFAAAAKEFSQDPGSANQGGDLGWATPDIFDPAFRDALTRLNKGQMSAPVHSSFGWHLIELLDTRNVDKTDAAQKDRAYRMLMNRKFSEEAASWMQEQRASAYVKILSN
notes: SurA, periplasmic chaperone of Escherichia coli; Probably the mature protein without its signal peptide (surmised); also called Escherichia coli periplasmic chaperone SurA
**Q.** Which Kd [3] does the source give for B2 here?
**A.** 1800 nM

**Q.** And the “stoichiometry N” value [2]?
**A.** 1 and 2

**Q.** And the stoichiometry N [4]?
**A.** 2

Source: article PMC5692476, “Effects of Periplasmic Chaperones and Membrane Thickness on BamA-Catalyzed Outer-Membrane Protein Folding” (Journal of Molecular Biology, 2017)
